Measurements published in ChEMBL document CHEMBL4321793, “Can Cysteine Protease Cross-Class Inhibitors Achieve Selectivity?” (J Med Chem, 2019).

Legend:
[1] = compound: N=C(N)NCCC[C@H](NC(=O)[C@H](Cc1ccc(NC(=N)N)cc1)NC(=O)OCc1ccccc1)C(=O)Nc1ccc2ccc(=O)oc2c1; assay: (§1) Inhibition of Trypanosoma cruzi cruzipain assessed as ratio of Kcat/Km using Z-Phe-Arg-MCA as substrate by spectrofluorometric method
[2] = compound: N=C(N)NCCC[C@H](NC(=O)OCc1ccccc1)C(=O)N[C@@H](CCCNC(=N)N)C(=O)Nc1ccc2ccc(=O)oc2c1; assay: as §1
[3] = compound: N=C(N)NCCC[C@H](NC(=O)[C@H](Cc1ccccc1)NC(=O)OCc1ccccc1)C(=O)Nc1ccc2ccc(=O)oc2c1; assay: as §1
[4] = compound: N=C(N)NCCC[C@H](NC(=O)[C@H](Cc1ccncc1)NC(=O)OCc1ccccc1)C(=O)Nc1ccc2ccc(=O)oc2c1; assay: as §1
[5] = substrate: N=C(N)NCCC[C@H](NC(=O)[C@H](Cc1ccc(NC(=N)N)cc1)NC(=O)OCc1ccccc1)C(=O)Nc1ccc2ccc(=O)oc2c1; assay: (§2) Inhibition of human cathepsin L assessed as ratio of Kcat/Km using Z-Phe-Arg-MCA as substrate by spectrofluorometric method
[6] = substrate: N=C(N)NCCC[C@H](NC(=O)OCc1ccccc1)C(=O)N[C@@H](CCCNC(=N)N)C(=O)Nc1ccc2ccc(=O)oc2c1; assay: as §2
[7] = substrate: N=C(N)NCCC[C@H](NC(=O)[C@H](Cc1ccccc1)NC(=O)OCc1ccccc1)C(=O)Nc1ccc2ccc(=O)oc2c1; assay: as §2
[8] = substrate: N=C(N)NCCC[C@H](NC(=O)[C@H](Cc1ccncc1)NC(=O)OCc1ccccc1)C(=O)Nc1ccc2ccc(=O)oc2c1; assay: as §2

B1: Cruzipain (Trypanosoma cruzi), P25779 (protein)
chain: MSGWARALLLAAVLVVMACLVPAATASLHAEETLTSQFAEFKQKHGRVYESAAEEAFRLSVFRENLFLARLHAAANPHATFGVTPFSDLTREEFRSRYHNGAAHFAAAQERARVPVKVEVVGAPAAVDWRARGAVTAVKDQGQCGSCWAFSAIGNVECQWFLAGHPLTNLSEQMLVSCDKTDSGCSGGLMNNAFEWIVQENNGAVYTEDSYPYASGEGISPPCTTSGHTVGATITGHVELPQDEAQIAAWLAVNGPVAVAVDASSWMTYTGGVMTSCVSEQLDHGVLLVGYNDSAAVPYWIIKNSWTTQWGEEGYIRIAKGSNQCLVKEEASSAVVGGPGPTPEPTTTTTTSAPGPSPSYFVQMSCTDAACIVGCENVTLPTGQCLLTTSGVSAIVTCGAETLTEEVFLTSTHCSGPSVRSSVPLNKCNRLLRGSVEFFCGSSSSGRLADVDRQRRHQPYHSRHRRL
For B1, the kcat/Km [1] was 1.1e+06 M⁻¹ s⁻¹, the kcat/Km [2] was 395000 M⁻¹ s⁻¹ and the kcat/Km [3] was 9.67e+06 M⁻¹ s⁻¹. For the same protein, the kcat/Km [4] was 6.95e+06 M⁻¹ s⁻¹.

B2: Procathepsin L (Homo sapiens) (protein)
chain: MNPTLILAAFCLGIASATLTFDHSLEAQWTKWKAMHNRLYGMNEEGWRRAVWEKNMKMIELHNQEYREGKHSFTMAMNAFGDMTSEEFRQVMNGFQNRKPRKGKVFQEPLFYEAPRSVDWREKGYVTPVKNQGQCGSCWAFSATGALEGQMFRKTGRLISLSEQNLVDCSGPQGNEGCNGGLMDYAFQYVQDNGGLDSEESYPYEATEESCKYNPKYSVANDTGFVDIPKQEKALMKAVATVGPISVAIDAGHESFLFYKEGIYFEPDCSSEDMDHGVLVVGYGFESTESDNNKYWLVKNSWGEEWGMGGYVKMAKDRRNHCGIASAASYPTV
B2 gave a kcat/Km [5] of 438000 M⁻¹ s⁻¹, a kcat/Km [6] of 37000 M⁻¹ s⁻¹ and a kcat/Km [7] of 9.46e+06 M⁻¹ s⁻¹. For the same protein, the kcat/Km [8] was 818000 M⁻¹ s⁻¹.
